System: MS2 coat protein
Assay: apparent KD of MS2 coat protein; designed switch direction (-1 OFF switch, 1 ON switch): -1; higher = weaker reporter binding
How it was run: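 Each step of the titration lasted 0.8–1.5 h at the lowest concentration and 10–20 min at the highest. The protein, SNAP-549-labelled MS2 coat protein, went from 0.7 or 1.5 nM doubling to 3 µM over RNA switches transcribed on Illumina chips by stalled E. coli RNA polymerase. Normalised cluster fluorescence was curve-fitted, and the per-design median over clusters is given as apparent KD.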

[1] = Eterna round: R95, input ligand: FMN 200 uM
[2] = Eterna round: R95, input ligand: microRNA oligo, concentration not stated
[3] = Eterna round: R95, input ligand: none
[4] = input ligand: microRNA oligo, concentration not stated

Row | Sequence | apparent KD of MS2 coat protein (input ligand: FMN 200 uM) | apparent KD of MS2 coat protein (input ligand: none) | apparent KD of MS2 coat protein [1] | apparent KD of MS2 coat protein [2] | apparent KD of MS2 coat protein [3] | apparent KD of MS2 coat protein [4]
1 | GCUGGACGAGGAUAUAUAUGACGUGCUUCGGCACGAAGAUCACAUGAGGAUCACCCAUGUAGAAGGUGUCCAGC [E2/8-B2] (Eterna round: R97, puzzle: Exclusion 2) | 278 nM | 54.1 nM |  |  |  | 
2 | GCUGGCUGAGGAUAUCUAUCCAUGAACAUGAGGAUCACCCAUGUAAACGUGGAGUGAGAUAGAGAAGGCGGGCAGA [EX5 A.13] (Eterna round: R97, puzzle: Exclusion 5) | 13.6 nM | 11.2 nM |  |  |  | 
3 | GCUGGUCGAGGAUAUACAUGAGGAUCACCCAUGUAGAUCAACCAGCGAUAGCUGGAAUGUAGAAGGCGACCAGC [E3/5-A1] (Eterna round: R97, puzzle: Exclusion 3) | 125 nM | 22.9 nM |  |  |  | 
4 | GCUGGUCGAGGAUAUACAUUCGUGCUUCGGCACGUAAGGUCACAUGAGGAUCACCCAUGUAGAAGGCGACCAGC [E2/7-A1] (Eterna round: R97, puzzle: Exclusion 2) | 258 nM | 42.2 nM |  |  |  | 
5 | GCUGGUCGAGGAUAUGCAAUCGUGCUUCGGCACGUAAGGUCACAUGAGGAUCACCCAUGUAGAAGGCGACCAGC [E2/4-A1] (Eterna round: R97, puzzle: Exclusion 2) | 32.5 nM | 19.2 nM |  |  |  | 
6 | GCUUGAGCAGGAUAUACAUGAGGAUCACCCAUGUGCUUGAGCUUGAUCGAGUUCGAGUGUAGAAGGGUUCGAGU [-26.9, -23.9 kcal, 24% A, 1 bis, 1 bis] (Eterna round: R97, puzzle: Exclusion 3) | 20.8 nM | 19.7 nM |  |  |  | 
7 | GCUUGUAGAGGAUAUACGAGGGCCCGAGCGGAUAACACCGCACAUGAGGAUCACCCAUGUAGAAGGCUACUACC [JL-ex2-4.17 ViennaUCT mod] (Eterna round: R97, puzzle: Exclusion 2) | 495 nM | 92.3 nM |  |  |  | 
8 | GCUUUUCUUUUCCUUUCUUACAUGAGGAUCACCCAUGUUUCUUGUCGUCCUCGCGUUGCUCGUCUGUCUGUCUGUUG [salish99_TOv1_r3_078] (puzzle: Sensor v3, turn-off variant 1) |  |  | 97.8 nM | 135 nM | 95.9 nM | 
9 | GCUUUUGGGCAAGGAUAUCCUGCGCUGUUCUGGUUCGUGUCUGUCACAUGAGGAUCACCCAUGUGGGAGAAGGUGCCUGUGGUG [Design 70] (Eterna round: R96, puzzle: Exclusion NG 2) | 17 nM | 19.2 nM |  |  |  | 14.7 nM
10 | GGAAAACAUGAGGAUCACCCAUGUAAGGAUAUGCAAAAGGAUAUAGAAGGAAAAAAAAGCAGAAGGUACAAAGG [salish99-ex1-21] (Eterna round: R96, puzzle: Exclusion 1) |  |  |  |  |  | 34 nM
11 | GGAAAACAUGAGGAUCACCCAUGUAAGGAUAUGCAAAAGGAUAUAGAAGGAAAAAAAAGCAGAAGGUACAAAGG [salish99-ex1_r3_094] (puzzle: Exclusion 1) |  |  | 132 nM | 36.3 nM | 32.8 nM | 
12 | GGAAAACAUGAGGAUCACCCAUGUAAGGAUAUGCAAAAGGAUAUAGAAGGAAUAAAAAGCAGAAGGUACAAAGG [salish99-ex1_r3_096] (puzzle: Exclusion 1) |  |  | 116 nM | 45.7 nM | 66.6 nM | 
13 | GGAAACCGAGGAUAUCAGUACACGCACAUGAGGAUCACCCAUGUGCUCCUGGGUGCUGUCUGAGAAGGCGGUGAGA [Quan] (Eterna round: R97, puzzle: Exclusion 5) | 648 nM | 1620 nM |  |  |  | 
14 | GGAAAGCAAGGAUAUACAAGUAAACGACGGAAAGUAGAGAGACAUGAGGAUCACCCAUGUAGAAGGUGCGAGAG [JR_Exclu2_Sub035] (puzzle: Exclusion 2) |  |  | 19 nM | 26.9 nM | 20.1 nM | 
15 | GGAAAGCAAGGAUAUACGAGGAGAAGGAGGAAAGUAAAAGGACAUGAGGAUCACCCAUGUAGAAGGUGCGAGAG [JR_Exclu2_Sub040] (puzzle: Exclusion 2) |  |  | 27.6 nM | 29.7 nM | 32.9 nM | 
16 | GGAAGACAUGAGGAUCACCCAUGUAAGGAUAUCGAAGGUAAGAGAGGAAAGAAGGGAACGAGAAGGUACAGGUG [JR_Exclu1_Sub095] (puzzle: Exclusion 1) |  |  | 102 nM | 88.9 nM | 123 nM | 

Row | Sequence | apparent KD of MS2 coat protein (input ligand: FMN 200 uM) | apparent KD of MS2 coat protein (input ligand: none) | apparent KD of MS2 coat protein [1] | apparent KD of MS2 coat protein [2] | apparent KD of MS2 coat protein [3] | apparent KD of MS2 coat protein [4]
17 | GGAAGCAAGGAAUAACUAAACAUGAGGAUCACCCAUGUAGAGCCCAUGUGCACGCAAAGCGUGCAAGCUCGUCUUAU [AK-miRNA-r3-17] (Eterna round: R97, puzzle: Sensor, turn-off variant 1) | 64.4 nM | 80.8 nM |  |  |  | 
18 | GGAAGGAGUGUAAGGAUAUCCUCCUCGAAAGAGGAGGAGAAGGUACAUGAGGAUCACCCAUGUAGAGGAGGAGG [AK-MS2ROC-r4-Bmoexclusion4-10.1] (Eterna round: R97, puzzle: Brourd's mod of Exclusion 4) | 73.6 nM | 35.7 nM |  |  |  | 
19 | GGAAGGCGAGGAUAUACAAUAAAGAAAGCGAAAGACAUGAAACAUGAGGAUCACCCAUGUAGAAGGCGCGGAGA [AK-MS2ROC-r4-exclusion2-9] (Eterna round: R97, puzzle: Exclusion 2) | 16.5 nM | 13.8 nM |  |  |  | 
20 | GGAAGGCGAGGAUAUGCAAUAAUACACUAAUUAAUGUGAAAACAUGAGGAUCACCCAUGUAGAAGGCGCGAGAA [AK-MS2ROC-r4-exclusion2-5] (Eterna round: R97, puzzle: Exclusion 2) | 21.2 nM | 20.7 nM |  |  |  | 
21 | GGAAUACAUGAGGAUCACCCAUGUAAGGAUAUGCUGAUUAAAUUGGAUUAAUUAUGCAGCAGAAGGUACAAAAG [Mat - Mod of my Eli Mod D49] (puzzle: Exclusion 1) |  |  |  | 82.3 nM |  | 
22 | GGAAUACAUGAGGAUCACCCAUGUAAGGAUAUGCUGAUUAAUUAAUUAUAAUUAUGCAGCAGAAGGUACAAAGG [Mat - Mod of my Eli Mod D50] (puzzle: Exclusion 1) |  |  |  | 87 nM |  | 
23 | GGAAUGAGAGAGGAUAUGGGAGGGAGGACCGGACCAGAAGGCUCGACAUGAGGAUCACCCAUGUAGAGAUCCUC [AK-MS2ROC-r4-exclusion6-6.10] (Eterna round: R97, puzzle: Exclusion 6) | 260 nM | 75.7 nM |  |  |  | 
24 | GGAAUGUAAGGAUAUGCGAAAAGAAGCCGAAGGGAGUCGAAGCAGAAGGUACAUGAGGAUCACCCAUGUAAGGG [AK-MS2ROC-r4-exclusion4-12.1] (Eterna round: R97, puzzle: Exclusion 4) | 159 nM | 700 nM |  |  |  | 
25 | GGACAUGCAGGAUAUGUAAAAUUUGACAUGAGGAUCACCCAUGUAGAUCCUGAAUUUCCUGCAGAAGGGCAUGUCC [Mat - Exclusion 5 - Eli Mod - D18] (Eterna round: R97, puzzle: Exclusion 5) | 396 nM | 109 nM |  |  |  | 
26 | GGACUAGGAGGAUAUACAUGAGGAUCACCCAUGUGUUGAUAAAGUCUACACAAUGUUAGUAGAAGGCUUAGACC [Eternabot (L2) Solution 18] (Eterna round: R97, puzzle: Exclusion 3) | 22.5 nM | 17.5 nM |  |  |  | 
27 | GGACUGCGACACAGCCAAACAAAACAUGAGGAUCACCCAUGUCAGGAUAUACCGAUGCAGCAUCUGUAGAAGGGACAGAUCCAA [Qusorave] (Eterna round: R96, puzzle: Exclusion NG 3) | 80.3 nM | 85.9 nM |  |  |  | 45.4 nM
28 | GGAGAACAUGAGGAUCACCCAUGUAAGGAUAUGCAAAAGGAUAUAGAAGGAAAAAAAAGCAGAAGGUACAAAGG [salish99-ex1_r3_101] (puzzle: Exclusion 1) |  |  | 79.5 nM | 81.9 nM | 75.1 nM | 
29 | GGAGAGGCAGGAUAUACAUGAGGAUCACCCAUGUGAGCGAGGAGAACGAGCAAGAGAGGUAGAAGGGCCGGGAG [AK-MS2ROC-r4-exclusion3-27] (Eterna round: R97, puzzle: Exclusion 3) | 46.5 nM | 44.9 nM |  |  |  | 
30 | GGAGCGGCAGGAUAUACAUGAGGAUCACCCAUGUAAAGAAGGGUAAGAAACCACCUCGGUAGAAGGGCCAGGAG [AK-MS2ROC-r4-exclusion3-10] (Eterna round: R97, puzzle: Exclusion 3) | 191 nM | 94.5 nM |  |  |  | 
31 | GGAGGAAAGAUAGGAUAUUAGAGGAAGGUGGUGAUAGAGACAUGAGGAUCACCCAUGUAAGGAGGUAAGAAGGGUCGAGGAGGA [AK ExNG2-V2-6] (Eterna round: R96, puzzle: Exclusion NG 2) | 231 nM | 243 nM |  |  |  | 66.5 nM
